In article PMC12768131, “Common cold embecovirus imprinting primes broadly neutralizing antibody responses to SARS-CoV-2 S2” (The Journal of experimental medicine, 2025):

Biological target: T1, full-length SARS-CoV-2 spiketrimer (HP-GSAS-Mut7) (SARS-CoV-2, ancestral (Wuhan-Hu-1), stabilised)
T1 construct: also called full-length spike trimer; full-length spike
Experiment: BLI
Conditions: both partners purified

B1: R125–61 Fab (Fab, V domains shown)
VH: QVQLQESGPGLVKPSETLSLICTVSGGSITRDFWSWVRQPPGKGLEWIGYGYYRGSTNYNPSLESRVTISVDTSKNQFSLKLTSVTAADTAVYYCARETAHNWIDTWGQGILVTVSS
VL: DIVMTQSPESLALSLGERATINCKSSQTVSFTSNNKNYLAWYQQKPRQPPKLLFYWASTRHSGVPDRFSGSGSGTDFTLTINSLQAEDVAVYFCHQYFSTPWTFGQGTKVEI
In the case of B1, the Kd is reported as 4.7 nM.
